Assay results published in US20230279089A1 (GlaxoSmithKline, published 2023).

How the values were obtained:
[1] = biological target: T1, Human BMP1 CD+CUB1 truncated antigen (human, UniProt P13497 121-434, limits assumed); test: SPR, mAb captured on protein A, HBS-EP
T1 construct: domain: CD+CUB1
T1 sequence (looked up): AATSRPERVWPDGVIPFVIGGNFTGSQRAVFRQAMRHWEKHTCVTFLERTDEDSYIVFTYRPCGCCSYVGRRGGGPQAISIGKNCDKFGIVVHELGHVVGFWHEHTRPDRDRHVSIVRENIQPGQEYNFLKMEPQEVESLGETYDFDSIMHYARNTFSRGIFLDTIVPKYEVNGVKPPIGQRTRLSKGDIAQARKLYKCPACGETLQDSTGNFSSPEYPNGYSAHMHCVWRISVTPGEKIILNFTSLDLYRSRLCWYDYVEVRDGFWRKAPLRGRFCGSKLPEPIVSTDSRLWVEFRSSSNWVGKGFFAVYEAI
Method: The 16 lead panel antibodies expressed in HEK cells were evaluated for binding to a truncated version of human BMP containing the catalytic domain and truncated domain (Human BMP1 CD+CUB1 truncated antigen) by SPR using BIACORE T200. HBS-EP+ buffer was used and the experiment run at 25° C. Protein A was immobilised to a CM5 sensor chip via amine coupling. The lead panel antibodies were captured onto protein A surface. Human BMP1 CD+CUB1 was then passed over the captured antibodies at various concentrations.

[2] = biological target: T2, Human TLL1 (human, UniProt O43897 148-1013, limits assumed); test: cell-based or functional assay
T2 sequence (looked up): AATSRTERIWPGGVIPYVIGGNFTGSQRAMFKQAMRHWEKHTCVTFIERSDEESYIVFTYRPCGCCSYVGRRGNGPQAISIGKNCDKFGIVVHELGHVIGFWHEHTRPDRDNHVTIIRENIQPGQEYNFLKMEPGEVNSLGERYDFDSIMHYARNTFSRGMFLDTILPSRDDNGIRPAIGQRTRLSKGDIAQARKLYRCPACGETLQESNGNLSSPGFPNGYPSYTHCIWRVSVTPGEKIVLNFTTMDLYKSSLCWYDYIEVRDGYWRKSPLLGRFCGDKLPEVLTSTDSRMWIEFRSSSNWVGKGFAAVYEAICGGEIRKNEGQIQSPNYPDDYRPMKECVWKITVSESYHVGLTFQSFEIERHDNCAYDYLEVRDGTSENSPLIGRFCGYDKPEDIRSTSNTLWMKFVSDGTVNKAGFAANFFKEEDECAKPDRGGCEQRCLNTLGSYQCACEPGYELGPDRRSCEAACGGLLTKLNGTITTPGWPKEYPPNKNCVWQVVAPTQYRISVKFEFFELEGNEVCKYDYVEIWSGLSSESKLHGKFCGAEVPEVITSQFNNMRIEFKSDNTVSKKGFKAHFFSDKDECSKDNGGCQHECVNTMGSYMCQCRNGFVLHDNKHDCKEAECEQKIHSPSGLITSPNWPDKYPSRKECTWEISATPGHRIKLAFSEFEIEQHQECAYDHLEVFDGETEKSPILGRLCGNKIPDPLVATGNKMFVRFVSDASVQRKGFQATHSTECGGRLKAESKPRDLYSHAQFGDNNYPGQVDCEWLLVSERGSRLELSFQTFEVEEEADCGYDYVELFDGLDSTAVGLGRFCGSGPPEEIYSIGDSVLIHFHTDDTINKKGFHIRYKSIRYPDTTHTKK

[3] = biological target: T3, Cyno TLL1 (cyno, UniProt A0A1D5QYV0 148-1013 (rhesus entry)); test: cell-based or functional assay
T3 sequence: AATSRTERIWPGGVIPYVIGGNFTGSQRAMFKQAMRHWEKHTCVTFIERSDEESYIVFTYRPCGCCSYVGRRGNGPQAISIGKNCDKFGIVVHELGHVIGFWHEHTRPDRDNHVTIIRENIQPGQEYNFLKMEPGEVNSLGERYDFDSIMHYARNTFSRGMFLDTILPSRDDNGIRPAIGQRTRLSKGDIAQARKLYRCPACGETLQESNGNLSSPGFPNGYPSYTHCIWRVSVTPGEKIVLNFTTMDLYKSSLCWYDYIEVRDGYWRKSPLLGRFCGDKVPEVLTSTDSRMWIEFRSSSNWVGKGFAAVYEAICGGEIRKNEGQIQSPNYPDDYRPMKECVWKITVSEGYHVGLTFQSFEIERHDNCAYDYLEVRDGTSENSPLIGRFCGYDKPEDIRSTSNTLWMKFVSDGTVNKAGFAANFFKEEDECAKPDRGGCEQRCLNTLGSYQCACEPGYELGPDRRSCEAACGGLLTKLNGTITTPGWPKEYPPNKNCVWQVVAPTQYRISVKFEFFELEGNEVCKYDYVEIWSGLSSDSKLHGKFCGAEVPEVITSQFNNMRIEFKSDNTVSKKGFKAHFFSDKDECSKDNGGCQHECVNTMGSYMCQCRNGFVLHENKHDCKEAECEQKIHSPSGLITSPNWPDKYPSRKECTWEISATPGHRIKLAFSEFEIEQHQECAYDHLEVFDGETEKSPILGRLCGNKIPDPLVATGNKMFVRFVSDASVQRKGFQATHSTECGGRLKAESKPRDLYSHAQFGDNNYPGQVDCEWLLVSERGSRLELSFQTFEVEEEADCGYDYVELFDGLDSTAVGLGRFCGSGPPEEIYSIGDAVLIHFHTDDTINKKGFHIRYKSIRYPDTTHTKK

B1: 13Y039-4B06-4376 (antibody, human IgG1, kappa, V domains shown)
VH: QVQLVQSGAEVKKPGASVKVSCKASGYTFMGYYMNWVRQAPGQGLEWMGWINPSSGETNYAQKFQGRVTMTRDTSISTAYMELSRLRSDDTAVYYCARDTGELDGMNWYFDLWGRGTLVTVSS
VL: EIVLTQSPATLSLSPGERATLSCRASQSVSSYLAWYQQKPGQAPRLLIYDASNRATGIPARFSGSGSGTDFTLTISSLEPEDFAVYYCQQSDSWPPTFGGGTKVEIKR
notes: Fully human IgG1 LAGA, kappa; HEK expressed
Kd [1]: 3.7 nM
IC50, FRET enzyme activity, 250 pM biotinylated huTLL-1 [2]: 70 pM
IC50, FRET enzyme activity, 750 pM biotinylated cynoTLL-1 [3]: 0.15 nM
